In US20100260668A1 (published 2010):

T1: PlGF (UniProt P49763-2 21-149, limits assumed)
T1 construct: bought antigen coated on the ELISA plate; also called Placental GF
T1 sequence (looked up): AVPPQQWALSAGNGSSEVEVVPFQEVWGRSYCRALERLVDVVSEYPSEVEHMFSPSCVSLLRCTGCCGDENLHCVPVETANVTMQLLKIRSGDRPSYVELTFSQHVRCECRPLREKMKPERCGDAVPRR

B1: DVD675 (bispecific antibody, human IgG1, kappa)
heavy: not shown
light: DIQMTQSPSSLSASVGDRVTITCKASENVVSYVSWYQQKPGKAPKLLIYGASNRNTGVPSRFSGSGSGTDFTLTISSLQPEDFATYYCGQSYNYPYTFGQGTKLEIKRTVAAPDIQMTQSPSSLSASVGDRVTITCRASQVIRRSLAWYQQKPGKAPKLLIYAASNLASGVPSRFSGSGSGTDFTLTISSLQPEDFATYYCQQSNTSPLTFGQGTKVEIKRTVAAPSVFIFPPSDEQLKSGTASVVCLLNNFYPREAKVQWKVDNALQSGNSQESVTEQDSKDSTYSLSSTLTLSKADYEKHKVYACEVTHQGLSSPVTKSFNRGEC
notes: DVD-Ig; N-term VD AB079 (HGF), C-term VD AB071 (VEGF); HC linker long, LC linker short; vectors V1/V2
B2: DVD661 (bispecific antibody, human IgG1, kappa)
heavy: not shown
light: DIQMTQSPSSLSASVGDRVTITCKASENVVSYVSWYQQKPGKAPKLLIYGASNRNTGVPSRFSGSGSGTDFTLTISSLQPEDFATYYCGQSYNYPYTFGQGTKLEIKRTVAAPDIQMTQSPSSLSASVGDRVTITCRASQDVSTAVAWYQQKPGKAPKLLIYSASFLYSGVPSRFSGSGSGTDFTLTISSLQPEDFATYYCQQSYTTPPTFGQGTKVEIKRTVAAPSVFIFPPSDEQLKSGTASVVCLLNNFYPREAKVQWKVDNALQSGNSQESVTEQDSKDSTYSLSSTLTLSKADYEKHKVYACEVTHQGLSSPVTKSFNRGEC
notes: DVD-Ig; HC linker short, LC linker short; vectors V1/V2
B3: DVD673 (bispecific antibody, human IgG1, kappa)
heavy: not shown
light: B2 light
notes: DVD-Ig; HC linker long, LC linker short; vectors V1/V2
B4: DVD669 (bispecific antibody, human IgG1, kappa)
heavy: not shown
light: DIQMTQSPSSLSASVGDRVTITCKASENVVSYVSWYQQKPGKAPKLLIYGASNRNTGVPSRFSGSGSGTDFTLTISSLQPEDFATYYCGQSYNYPYTFGQGTKLEIKRTVAAPSVFIFPPDIQMTQSPSSLSASVGDRVTITCRASQVIRRSLAWYQQKPGKAPKLLIYAASNLASGVPSRFSGSGSGTDFTLTISSLQPEDFATYYCQQSNTSPLTFGQGTKVEIKRTVAAPSVFIFPPSDEQLKSGTASVVCLLNNFYPREAKVQWKVDNALQSGNSQESVTEQDSKDSTYSLSSTLTLSKADYEKHKVYACEVTHQGLSSPVTKSFNRGEC
notes: DVD-Ig; N-term VD AB079 (HGF), C-term VD AB071 (VEGF); HC linker long, LC linker long; vectors V1/V2
B5: DVD681 (bispecific antibody, human IgG1, kappa)
heavy: not shown
light: B4 light
notes: DVD-Ig; N-term VD AB079 (HGF), C-term VD AB071 (VEGF); HC linker short, LC linker long; vectors V1/V2
B6: DVD711 (bispecific antibody, human IgG1, kappa)
heavy: not shown
light: DIQMTQSPSSVSASVGDRVTITCRASQGISSWLAWYQQKPGKAPNLLIYEASSLQSGVPSRFGGSGSGTDFTLTISSLQPEDFATYYCQQANGFPWTFGQGTKVEIKRTVAAPDIQMTQSPSSLSASVGDRVTITCRASQVIRRSLAWYQQKPGKAPKLLIYAASNLASGVPSRFSGSGSGTDFTLTISSLQPEDFATYYCQQSNTSPLTFGQGTKVEIKRTVAAPSVFIFPPSDEQLKSGTASVVCLLNNFYPREAKVQWKVDNALQSGNSQESVTEQDSKDSTYSLSSTLTLSKADYEKHKVYACEVTHQGLSSPVTKSFNRGEC
notes: DVD-Ig; N-term VD AB012 (HGF), C-term VD AB071 (VEGF); HC linker short, LC linker short; vectors V1/V2
B7: DVD667 (bispecific antibody, human IgG1, kappa)
heavy: not shown
light: DIQMTQSPSSLSASVGDRVTITCKASENVVSYVSWYQQKPGKAPKLLIYGASNRNTGVPSRFSGSGSGTDFTLTISSLQPEDFATYYCGQSYNYPYTFGQGTKLEIKRTVAAPSVFIFPPDIQMTQSPSSLSASVGDRVTITCRASQDVSTAVAWYQQKPGKAPKLLIYSASFLYSGVPSRFSGSGSGTDFTLTISSLQPEDFATYYCQQSYTTPPTFGQGTKVEIKRTVAAPSVFIFPPSDEQLKSGTASVVCLLNNFYPREAKVQWKVDNALQSGNSQESVTEQDSKDSTYSLSSTLTLSKADYEKHKVYACEVTHQGLSSPVTKSFNRGEC
notes: DVD-Ig; HC linker long, LC linker long; vectors V1/V2
B8: DVD679 (bispecific antibody, human IgG1, kappa)
heavy: not shown
light: B7 light
notes: DVD-Ig; HC linker short, LC linker long; vectors V1/V2
B9: DVD709 (bispecific antibody, human IgG1, kappa)
heavy: not shown
light: DIQMTQSPSSVSASVGDRVTITCRASQGISSWLAWYQQKPGKAPNLLIYEASSLQSGVPSRFGGSGSGTDFTLTISSLQPEDFATYYCQQANGFPWTFGQGTKVEIKRTVAAPDIQMTQSPSSLSASVGDRVTITCRASQDVSTAVAWYQQKPGKAPKLLIYSASFLYSGVPSRFSGSGSGTDFTLTISSLQPEDFATYYCQQSYTTPPTFGQGTKVEIKRTVAAPSVFIFPPSDEQLKSGTASVVCLLNNFYPREAKVQWKVDNALQSGNSQESVTEQDSKDSTYSLSSTLTLSKADYEKHKVYACEVTHQGLSSPVTKSFNRGEC
notes: as for B2
B10: DVD550 (bispecific antibody, human IgG1, kappa)
heavy: not shown
light: DIQMTQSPSSLSASVGDRVTITCSASQDISNYLNWYQQKPGKAPKVLIYFTSSLHSGVPSRFSGSGSGTDFTLTISSLQPEDFATYYCQQYSTVPWTFGQGTKVEIKRTVAAPSVFIFPPAIQMTQSSSSFSVSLGDRVTITCKASEDIYNRFAWYQQKPGNAPRLLISGAASLEAGVPSRFSGSGSGQDYTLSITSLQTEDVATYYCQQYWSTPWTFGGGTKLEIKRTVAAPSVFIFPPSDEQLKSGTASVVCLLNNFYPREAKVQWKVDNALQSGNSQESVTEQDSKDSTYSLSSTLTLSKADYEKHKVYACEVTHQGLSSPVTKSFNRGEC
notes: HC linker long, LC linker long; also called DVD-Ig DVD550
B11: DVD545 (bispecific antibody, human IgG1, kappa)
heavy: not shown
light: AIQMTQSSSSFSVSLGDRVTITCKASEDIYNRFAWYQQKPGNAPRLLISGAASLEAGVPSRFSGSGSGQDYTLSITSLQTEDVATYYCQQYWSTPWTFGGGTKLEIKRTVAAPDIQMTQSPSSLSASVGDRVTITCRASQVIRRSLAWYQQKPGKAPKLLIYAASNLASGVPSRFSGSGSGTDFTLTISSLQPEDFATYYCQQSNTSPLTFGQGTKVEIKRTVAAPSVFIFPPSDEQLKSGTASVVCLLNNFYPREAKVQWKVDNALQSGNSQESVTEQDSKDSTYSLSSTLTLSKADYEKHKVYACEVTHQGLSSPVTKSFNRGEC
notes: outer AB074 (PlGF), inner AB071 (VEGF); HC linker short, LC linker short; also called DVD-Ig DVD545

target: T2, VEGF 1-165 aa (UniProt P15692 27-191); test: direct bind ELISA (C-term VD)
T2 construct: Bought antigen coated on the ELISA plate
T2 sequence (P15692 other isoform, or with tags, fused parts or gaps limits assumed): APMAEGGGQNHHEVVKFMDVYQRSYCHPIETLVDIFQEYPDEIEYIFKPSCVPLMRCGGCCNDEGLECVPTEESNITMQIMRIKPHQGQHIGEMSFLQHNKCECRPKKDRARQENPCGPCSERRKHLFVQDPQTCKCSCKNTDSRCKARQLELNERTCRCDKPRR
Procedure: (§1) Enzyme Linked Immunosorbent Assays to screen for antibodies that bind a desired target antigen were performed as follows. […] Plates were washed four times with PBS containing 0.02% Tween 20. Plates were blocked by the addition of 300 μL/well blocking solution (non-fat dry milk powder, various retail suppliers, diluted to 2% in PBS) for ½ hour at room temperature. Plates were washed four times after blocking with PBS containing 0.02% Tween 20.
Alternatively, one hundred microliters per well of 10 μg/ml of Histidine (His) tagged desired target antigen (R&D Systems, Minneapolis, Minn.) was added to ELISA plates coated with monoclonal mouse anti-polyHistidine antibody as described above and incubated for 1 hour at room temperature. Wells were washed four times with PBS containing 0.02% Tween 20.
(§2) Plates were washed 4 times with PBS containing 0.02% Tween 20.

| EC50 | Binder |
| --- | --- |
| 5770 nM | B1 |
| 566 nM | B2 |
| 65.3 nM | B3 |
| 1660 nM | B4 |
| 2160 nM | B5 |
| 166 nM | B6 |
| 51.3 nM | B7 |
| 92.4 nM | B8 |
| 1370 nM | B9 |

target: T3, HGF-His tag (UniProt P14210 32-728); test: direct bind ELISA (N-term VD);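 further: ELISA screen of antibodies for binding to plate-immobilized target antigen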
T3 construct: Bought antigen coated on the ELISA plate; not shown: His tag
T3 sequence (P14210 32-728 limits assumed): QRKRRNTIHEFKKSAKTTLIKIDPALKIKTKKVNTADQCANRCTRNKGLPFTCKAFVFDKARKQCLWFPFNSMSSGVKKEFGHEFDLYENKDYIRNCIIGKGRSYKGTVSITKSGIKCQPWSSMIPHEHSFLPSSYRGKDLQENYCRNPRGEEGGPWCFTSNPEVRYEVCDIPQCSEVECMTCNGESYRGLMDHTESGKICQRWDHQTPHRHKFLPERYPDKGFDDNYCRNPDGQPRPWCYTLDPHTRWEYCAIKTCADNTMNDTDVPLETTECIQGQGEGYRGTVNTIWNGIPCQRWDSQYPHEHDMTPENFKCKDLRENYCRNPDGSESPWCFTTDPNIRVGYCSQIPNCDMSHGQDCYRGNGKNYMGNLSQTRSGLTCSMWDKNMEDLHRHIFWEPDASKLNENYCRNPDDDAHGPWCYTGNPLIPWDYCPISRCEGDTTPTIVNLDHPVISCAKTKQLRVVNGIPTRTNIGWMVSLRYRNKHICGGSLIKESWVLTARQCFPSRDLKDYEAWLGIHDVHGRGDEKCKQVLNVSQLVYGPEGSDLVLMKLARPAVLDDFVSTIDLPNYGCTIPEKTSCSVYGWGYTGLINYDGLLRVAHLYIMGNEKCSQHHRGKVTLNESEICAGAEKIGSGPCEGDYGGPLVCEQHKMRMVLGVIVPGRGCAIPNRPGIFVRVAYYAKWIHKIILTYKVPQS

| EC50 | Binder |
| --- | --- |
| 0.48 nM | B1 |
| 0.7 nM | B2 |
| 0.4 nM | B3 |
| 0.29 nM | B4 |
| 0.27 nM | B5 |
| 1.32 nM | B6 |
| 0.33 nM | B7 |
| 0.32 nM | B8 |
| 0.14 nM | B9 |

target: T1, PlGF; test: direct bind ELISA, C-terminal VD
Procedure: as §1, §2

| EC50 | Binder |
| --- | --- |
| 146 nM | B10 |

target: T1, PlGF; test: direct bind ELISA, N-terminal VD

| EC50 | Binder |
| --- | --- |
| 98.8 nM | B11 |
